“And” between values parts separate entries of the source, which are not always exact repeats. Identical values can stand only once.
Target: GroEL14 as used with the substrate proteins NanA and DapA (E. coli) (UniProt P0A6F5)
Assay: native MS; CE-MS; 6 µM GroEL14 with 6 or 12 µM substrate monomers, denatured in 6.5 M GuHCl and 9 mM DTT and diluted 30-fold into GroEL14 buffer pH 7.5 (200 mM GuHCl, 0.3 mM DTT left); no ATP, no GroES; BGE 50 mM ammonium acetate pH 6.7

Sequence of N-acetyl neuraminic acid aldolase, denatured monomer (NanA) (P0A6L4 2-297): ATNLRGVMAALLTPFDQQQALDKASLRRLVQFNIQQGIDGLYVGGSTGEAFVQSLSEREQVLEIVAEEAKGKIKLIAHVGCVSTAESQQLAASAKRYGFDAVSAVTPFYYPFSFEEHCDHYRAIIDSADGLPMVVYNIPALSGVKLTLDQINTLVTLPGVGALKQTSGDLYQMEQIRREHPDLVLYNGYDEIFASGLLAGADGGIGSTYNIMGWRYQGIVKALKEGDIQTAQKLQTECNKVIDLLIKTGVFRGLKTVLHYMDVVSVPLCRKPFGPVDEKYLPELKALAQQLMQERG

share of the total signal intensity, GroEL14-NanA1 complex: 10% | share of the total signal intensity, GroEL14-NanA2 complex: 90% | stoichiometry N (NanA monomers per GroEL14): 1 and 2
Substance: N-acetyl neuraminic acid aldolase, denatured monomer (NanA) (from UniProt P0A6L4 2-297) (enzyme)

Source: paper PMC10953559
